# Tests used:
# [1] = test system: P1, H2N-GPQGIAGQR(GPO)4GG-OH
# [2] = test system: lipopeptide LP1, CH3(CH2)16COHN-GPQGIAGQR(GPO)4GG-OH
# Sequence of recombinant form of human MMP-9, containing the catalytic and fibronectin domains of the enzyme (chain, as listed by the source): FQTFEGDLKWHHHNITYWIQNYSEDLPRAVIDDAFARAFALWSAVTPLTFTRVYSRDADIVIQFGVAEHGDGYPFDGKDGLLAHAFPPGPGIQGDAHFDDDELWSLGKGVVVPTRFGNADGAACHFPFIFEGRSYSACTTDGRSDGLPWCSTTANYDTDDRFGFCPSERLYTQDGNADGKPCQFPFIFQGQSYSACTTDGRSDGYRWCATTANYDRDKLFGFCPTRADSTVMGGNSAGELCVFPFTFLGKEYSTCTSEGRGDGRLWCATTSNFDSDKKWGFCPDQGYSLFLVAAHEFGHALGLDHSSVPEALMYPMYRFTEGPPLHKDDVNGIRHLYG
# Sequence of trypsin (P00760 24-246): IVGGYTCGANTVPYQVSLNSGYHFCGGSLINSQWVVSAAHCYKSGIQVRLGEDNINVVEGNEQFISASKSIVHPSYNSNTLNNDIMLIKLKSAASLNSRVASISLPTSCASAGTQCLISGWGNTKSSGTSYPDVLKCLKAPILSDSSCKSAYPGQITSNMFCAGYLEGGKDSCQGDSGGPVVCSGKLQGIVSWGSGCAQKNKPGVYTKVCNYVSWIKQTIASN
Substance,"cleavage of the peptide, products analyzed by RP-HPLC [1]","cleavage of the lipopeptide, products analyzed by RP-HPLC [2]","release of encapsulated carboxyfluorescein from LP1/DSPC liposomes (fluorescence at 518 nm, five hours) [2]",release of encapsulated carboxyfluorescein from LP1/DSPC liposomes (fluorescence at 518 nm) [2]
"recombinant form of human MMP-9, containing the catalytic and fibronectin domains of the enzyme",The peptide P1 (Rpn=0.04) was efficiently cleaved by the target enzyme MMP-9,"the lipopeptide LP1 (Rpn=0.11) was partially cleaved by MMP-9 (in 2 hours, FIG. 2A)","In five hours, about 55% of the encapsulated dye was found to be released",–
trypsin,"efficiently cleaved by the target enzyme MMP-9 as well as by a non-specific proteolytic enzyme, trypsin",–,–,"trypsin, once again failed to release the dye from the liposome"
